B1: Transcriptional repressor p66-beta, residues 415 to 455; numbered along this chain, Q8WXI9 (parent)
chain: VEPFVCAQCRTDFTPHWKQEKNGKILCEQCMTSNQKKALKA

± gives the uncertainty stated by the source.

This series covers variants of B1. In words: abundance fitness (aPCA) (normalised: wild type 0, dead -1); higher = more abundant; growth selection in yeast, the domain comes from the species named. To be noted: Homo sapiens.
For G23A, the abundance fitness came to 0.148 ± 0.062. Turning to F4H, the abundance fitness was found to be 0.114 ± 0.32.

As to F4R, the abundance fitness is -0.19 ± 0.062. For F4M, the abundance fitness was 0.64 ± 0.073. On to F4L, for which the abundance fitness was 0.036 ± 0.077. With F4N, the abundance fitness was determined as 0.34 ± 0.12.

Turning to F4P, the abundance fitness was -0.208 ± 0.18. To F4K belongs -0.137 ± 0.17; to F4Y, -0.14 ± 0.33; to F4I, 0.125 ± 0.39. As to F4T, the abundance fitness was -0.126 ± 0.085. Take F4G: the abundance fitness was determined as 0.044 ± 0.052. Turning to F4A, the abundance fitness turned out to be 0.101 ± 0.065. F4S: the abundance fitness is -0.169 ± 0.073. For F4E, the abundance fitness was -0.134 ± 0.091. Consider F4D, for which the abundance fitness turned out to be 0.282 ± 0.077. In the case of F4C, the abundance fitness came to 0.659 ± 0.067. Turning to D12V, the abundance fitness came to 0.312 ± 0.059.

D12Y: the abundance fitness is -0.025 ± 0.13. As to D12A, the abundance fitness turned out to be 0.064 ± 0.087.

Turning to D12P, the abundance fitness was -0.118 ± 0.086. As to D12E, the abundance fitness is 0.032 ± 0.081.

Consider D12C, for which the abundance fitness came out at 0.141 ± 0.14. On to D12Q, for which the abundance fitness was -0.208 ± 0.1. Consider D12T, for which the abundance fitness was -0.016 ± 0.092. To D12L belongs -0.198 ± 0.1. As for D12S, the figure is 0.117 ± 0.086; as for D12F, -0.149 ± 0.2; as for D12H, 0.081 ± 0.13. In the case of D12K, the abundance fitness was -0.274 ± 0.2. D12N: the abundance fitness stood at 0.187 ± 0.15. For T11S, the abundance fitness came to 0.058 ± 0.064.

For T11G, the abundance fitness was determined as 0.354 ± 0.05. Take T11M: the abundance fitness was found to be 0.436 ± 0.08.

On to T11L, for which the abundance fitness was found to be 0.156 ± 0.086. To T11D belongs 0.066 ± 0.44; to T11W, -0.133 ± 0.072; to T11P, -0.025 ± 0.076. In the case of T11K, the abundance fitness stood at 0.427 ± 0.099. For the variant T11C, the abundance fitness is 0.183 ± 0.11. To T11Q belongs 0.312 ± 0.069; to T11V, 0.587 ± 0.071; to T11E, 0.312 ± 0.064. Turning to T11F, the abundance fitness was -0.306 ± 0.23. Regarding T11H, the abundance fitness was 0.346 ± 0.22. In the case of T11R, the abundance fitness turned out to be 0.1 ± 0.056. For the variant E2R, the abundance fitness is -0.55 ± 0.15. In the case of E2D, the abundance fitness is 1.14 ± 0.48. E2C: the abundance fitness was -0.112 ± 0.16.

For the variant E2Y, the abundance fitness is -0.114 ± 0.11. Take E2W: the abundance fitness was -0.651 ± 0.16. To E2N belongs 0.866 ± 0.19.

On to E2H, for which the abundance fitness was 0.197 ± 0.14.

Regarding E2Q, the abundance fitness is -0.297 ± 0.17.

For the variant E2G, the abundance fitness was -0.299 ± 0.092.

For E2V, the abundance fitness is -0.227 ± 0.072. E2I: the abundance fitness is -0.342 ± 0.37.

Turning to E2L, the abundance fitness was -0.469 ± 0.16. For the variant E2F, the abundance fitness was -0.1 ± 0.28.

Regarding E2P, the abundance fitness was -0.29 ± 0.16. In the case of E2K, the abundance fitness is -0.324 ± 0.11.

For the variant E2S, the abundance fitness is -0.074 ± 0.086. As for E2T, the abundance fitness worked out at 0.056 ± 0.1. Turning to E2M, the abundance fitness is -0.019 ± 0.1. Consider E2A, for which the abundance fitness was -0.352 ± 0.088. To A7N belongs 0.121 ± 0.13. Take A7D: the abundance fitness amounted to 0.27 ± 0.096. Regarding A7T, the abundance fitness came out at 0.208 ± 0.07. For A7G, the abundance fitness came to 0.368 ± 0.053. As for A7F, the abundance fitness was determined as 0.068 ± 0.11. To A7Y belongs -0.309 ± 0.12; to A7H, 0.534 ± 0.28. As for A7V, the figure is 0.363 ± 0.054; as for A7I, 0.078 ± 0.11; as for A7L, -0.158 ± 0.061.

Consider A7C, for which the abundance fitness is 0.325 ± 0.089. Regarding A7W, the abundance fitness was -0.223 ± 0.083. For the variant A7S, the abundance fitness was determined as 0.523 ± 0.087. For the variant A7R, the abundance fitness is 0.075 ± 0.064. For A7P, the abundance fitness was -0.091 ± 0.1. Take A7M: the abundance fitness was -0.165 ± 0.095. To A7K belongs 0.09 ± 0.11; to A7E, 0.188 ± 0.063. On to K18M, for which the abundance fitness is -0.011 ± 0.19. K18C: the abundance fitness amounted to 0.01 ± 0.078. K18S: the abundance fitness was determined as 0.021 ± 0.092. Regarding K18D, the abundance fitness is -0.099 ± 0.24. Regarding K18Y, the abundance fitness was -0.447 ± 0.34. As to K18L, the abundance fitness is -0.217 ± 0.069.

Turning to K18R, the abundance fitness was -0.072 ± 0.078. Consider K18T, for which the abundance fitness is -0.164 ± 0.17. Take K18G: the abundance fitness stood at 0.098 ± 0.071.

For the variant K18I, the abundance fitness was -0.295 ± 0.38. For the variant K18F, the abundance fitness was -0.312 ± 0.39. For the variant K18W, the abundance fitness was -0.195 ± 0.073. Take K18P: the abundance fitness was -0.165 ± 0.11.

For K18E, the abundance fitness was 0.098 ± 0.078. Turning to K18H, the abundance fitness is 0.155 ± 0.38. To K18Q belongs -0.105 ± 0.11; to K18V, 0.011 ± 0.06. Turning to K21M, the abundance fitness was -0.054 ± 0.17. K21P: the abundance fitness stood at 0.264 ± 0.12. With K21V, the abundance fitness is -0.026 ± 0.093. As for K21R, the figure is 0.129 ± 0.057; as for K21S, -0.104 ± 0.084; as for K21Q, 0.235 ± 0.1. To K21W belongs 0.037 ± 0.077; to K21G, 0.145 ± 0.053. For the variant K21A, the abundance fitness was 0.008 ± 0.068. Take W17I: the abundance fitness turned out to be 0.013 ± 0.24. As for W17S, the figure is 0.127 ± 0.08; as for W17E, 0.196 ± 0.11. As for W17L, the figure is 0.051 ± 0.088; as for W17D, 0.285 ± 0.11; as for W17H, 0.009 ± 0.14.

W17Q: the abundance fitness stood at 0.523 ± 0.13. For W17A, the abundance fitness is -0.009 ± 0.07.

For W17R, the abundance fitness turned out to be 0.092 ± 0.061. As for W17C, the abundance fitness is 0.149 ± 0.093. Take W17V: the abundance fitness worked out at 0.082 ± 0.069. On to W17T, for which the abundance fitness was determined as 0.564 ± 0.2. With W17K, the abundance fitness was determined as 0.387 ± 0.11. As for W17Y, the abundance fitness came out at 0.557 ± 0.4. As for W17P, the figure is -0.135 ± 0.17; as for C6Y, -0.23 ± 0.39; as for C6E, -1.02 ± 0.21. On to C6M, for which the abundance fitness was -1.12 ± 0.22. For C6L, the abundance fitness is -0.939 ± 0.24. In the case of C6R, the abundance fitness was -1 ± 0.15. Take C6S: the abundance fitness was -0.911 ± 0.23. As for C6V, the figure is -1.08 ± 0.17; as for C6A, -0.771 ± 0.19.

Regarding C6W, the abundance fitness was -0.955 ± 0.2. For C6G, the abundance fitness was -1.02 ± 0.14.

Turning to C6D, the abundance fitness is -0.718 ± 0.17. To C6N belongs -0.317 ± 0.28.

In the case of C6K, the abundance fitness was -0.368 ± 0.29. As to C6F, the abundance fitness was -0.944 ± 0.43. With C6T, the abundance fitness was 0.403 ± 0.15. For the variant P15I, the abundance fitness was -0.154 ± 0.19.

Consider P15F, for which the abundance fitness was -0.351 ± 0.18. To P15E belongs -0.102 ± 0.076; to P15Q, -0.137 ± 0.23. As to P15D, the abundance fitness is 0.212 ± 0.14. Turning to P15W, the abundance fitness was -0.401 ± 0.087. Take P15V: the abundance fitness is 0.015 ± 0.063.

As for P15C, the abundance fitness stood at 0.051 ± 0.08. As to P15A, the abundance fitness was -0.011 ± 0.075.

On to P15G, for which the abundance fitness is -0.048 ± 0.06. As for P15T, the figure is 0.078 ± 0.085; as for P15L, -0.018 ± 0.1; as for P15M, -0.111 ± 0.1. For P15R, the abundance fitness is -0.15 ± 0.062. As for P3W, the abundance fitness is -0.243 ± 0.2. For the variant P3H, the abundance fitness was determined as 0.215 ± 0.11. As for P3R, the abundance fitness worked out at 0.121 ± 0.062.

P3E: the abundance fitness was determined as 0.213 ± 0.098. P3G: the abundance fitness turned out to be 0.22 ± 0.053.

In the case of P3I, the abundance fitness was found to be 0.284 ± 0.49. Take P3T: the abundance fitness is -0.066 ± 0.19. As for P3V, the figure is -0.057 ± 0.074; as for P3S, 0.398 ± 0.077; as for P3K, -0.118 ± 0.16.

Turning to P3L, the abundance fitness was 0.095 ± 0.085. In the case of P3C, the abundance fitness amounted to 0.488 ± 0.42. Consider P3D, for which the abundance fitness was -0.521 ± 0.27. Take P3A: the abundance fitness came out at 0.313 ± 0.087.

The record behind these values is the Human Domainome abundance scans (Beltran et al. 2025).
